Assay results from patent US20240024505A1.

Biological target: mRXFP1 (UniProt Q9HBX9)
Assay: cell-based or functional assay

Chain of mRXFP1 (Q9HBX9 whole entry): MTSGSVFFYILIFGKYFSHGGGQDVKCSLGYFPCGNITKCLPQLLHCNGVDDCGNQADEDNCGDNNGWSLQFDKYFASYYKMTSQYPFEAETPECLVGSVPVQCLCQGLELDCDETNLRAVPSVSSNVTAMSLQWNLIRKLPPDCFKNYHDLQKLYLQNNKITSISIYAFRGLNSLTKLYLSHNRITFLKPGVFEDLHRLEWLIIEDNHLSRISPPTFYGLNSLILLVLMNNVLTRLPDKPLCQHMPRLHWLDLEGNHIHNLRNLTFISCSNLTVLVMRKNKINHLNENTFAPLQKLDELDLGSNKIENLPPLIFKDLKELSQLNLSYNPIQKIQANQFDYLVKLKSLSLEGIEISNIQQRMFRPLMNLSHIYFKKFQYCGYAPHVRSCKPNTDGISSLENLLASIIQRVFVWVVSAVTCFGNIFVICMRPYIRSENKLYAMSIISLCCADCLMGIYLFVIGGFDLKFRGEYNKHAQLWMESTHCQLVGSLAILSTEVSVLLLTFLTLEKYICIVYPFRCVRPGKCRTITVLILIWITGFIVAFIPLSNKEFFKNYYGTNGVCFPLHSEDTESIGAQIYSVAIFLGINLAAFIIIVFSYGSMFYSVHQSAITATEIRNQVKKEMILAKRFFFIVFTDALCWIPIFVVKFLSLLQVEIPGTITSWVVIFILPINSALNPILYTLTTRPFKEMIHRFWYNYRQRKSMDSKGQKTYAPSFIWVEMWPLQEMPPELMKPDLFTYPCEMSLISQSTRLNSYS

In the case of “recombinant RLX (serelaxin) (from UniProt P04090 25-53; P04090 162-185) (ligand)”, the intracellular cAMP in human fibroblast-like synoviocytes was greater than 15 fold.
